Assay results as given in the supplement of paper PMC9112550, “Optimization of the antimicrobial peptide Bac7 by deep mutational scanning” (BMC Biology, 2022).

Test system: Escherichia coli TOP10
Experiment: shrunken log2 fold change of peptide-encoding DNA abundance (4.5 h post-induction vs induction); higher = less antimicrobial activity (less host growth inhibition)
Settings: time post-induction: 4.5 h; library: site-saturation at positions 5, 18, 19, 20
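Also: peptides expressed intracellularly from a pBAD plasmid library in pooled LB shake-flask culture, induced with 0.3% L-arabinose, DNA abundance read by NGS, three biological replicates, DESeq2 with apeglm shrinkage.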

RRIRTRPPRLPRPRPRPDTLPRP
shrunken log2 fold change: 0.00154

RRIRHRPPRLPRPRPRPPQHPRP
shrunken log2 fold change: -0.177

RRIRIRPPRLPRPRPRPNMGPRP
shrunken log2 fold change: -0.563

RRIRMRPPRLPRPRPRPILSPRP
shrunken log2 fold change: 0.00774

RRIRIRPPRLPRPRPRPWVAPRP
shrunken log2 fold change: -0.00986

RRIRNRPPRLPRPRPRPDQEPRP
shrunken log2 fold change: -0.00963

RRIRKRPPRLPRPRPRPLYLPRP
shrunken log2 fold change: -0.17

RRIRARPPRLPRPRPRPGSEPRP
shrunken log2 fold change: 0.0951

RRIRHRPPRLPRPRPRPMISPRP
shrunken log2 fold change: -0.442

RRIRDRPPRLPRPRPRPDCYPRP
shrunken log2 fold change: 0.269

RRIRSRPPRLPRPRPRPQKHPRP
shrunken log2 fold change: -0.106

RRIRIRPPRLPRPRPRPNCPPRP
shrunken log2 fold change: -0.231

RRIRQRPPRLPRPRPRPLSNPRP
shrunken log2 fold change: -0.109

RRIRVRPPRLPRPRPRPWMLPRP
shrunken log2 fold change: -0.2

RRIRTRPPRLPRPRPRPWGDPRP
shrunken log2 fold change: -0.273

RRIRVRPPRLPRPRPRPYPDPRP
shrunken log2 fold change: -0.293

RRIRCRPPRLPRPRPRPKDFPRP
shrunken log2 fold change: -0.0611

RRIRSRPPRLPRPRPRPIDIPRP
shrunken log2 fold change: -0.3

RRIRLRPPRLPRPRPRPCRFPRP
shrunken log2 fold change: -0.226

RRIRTRPPRLPRPRPRPHDGPRP
shrunken log2 fold change: -0.0845

RRIRPRPPRLPRPRPRPHGPPRP
shrunken log2 fold change: 0.0292

RRIRPRPPRLPRPRPRPFSWPRP
shrunken log2 fold change: -0.0698

RRIRERPPRLPRPRPRPKCIPRP
shrunken log2 fold change: -0.464

RRIRDRPPRLPRPRPRPNFIPRP
shrunken log2 fold change: -0.0733

RRIRTRPPRLPRPRPRPSIPPRP
shrunken log2 fold change: -0.356

RRIRTRPPRLPRPRPRPHRRPRP
shrunken log2 fold change: 0.0892

RRIRQRPPRLPRPRPRPEYLPRP
shrunken log2 fold change: -0.00804

RRIRQRPPRLPRPRPRPTDFPRP
shrunken log2 fold change: -0.122

RRIRDRPPRLPRPRPRPVQFPRP
shrunken log2 fold change: -0.0196

RRIRQRPPRLPRPRPRPAGMPRP
shrunken log2 fold change: -0.148

RRIRNRPPRLPRPRPRPDAMPRP
shrunken log2 fold change: -0.0496

RRIRCRPPRLPRPRPRPCIRPRP
shrunken log2 fold change: -0.145

RRIRCRPPRLPRPRPRPWPTPRP
shrunken log2 fold change: 0.0985

RRIRHRPPRLPRPRPRPYHDPRP
shrunken log2 fold change: -0.135

RRIRFRPPRLPRPRPRPQCMPRP
shrunken log2 fold change: 0.000372

RRIRYRPPRLPRPRPRPPPIPRP
shrunken log2 fold change: 0.0596

RRIRPRPPRLPRPRPRPIQKPRP
shrunken log2 fold change: 0.115

RRIRARPPRLPRPRPRPHDNPRP
shrunken log2 fold change: 0.00651

RRIRMRPPRLPRPRPRPFIFPRP
shrunken log2 fold change: -0.233

RRIRHRPPRLPRPRPRPGKYPRP
shrunken log2 fold change: -0.0822

RRIRPRPPRLPRPRPRPGELPRP
shrunken log2 fold change: 0.192

RRIRVRPPRLPRPRPRPILKPRP
shrunken log2 fold change: -0.203

RRIRWRPPRLPRPRPRPYPGPRP
shrunken log2 fold change: -0.0967

RRIRFRPPRLPRPRPRPYREPRP
shrunken log2 fold change: -0.468

RRIRFRPPRLPRPRPRPPFGPRP
shrunken log2 fold change: -0.00994

RRIRDRPPRLPRPRPRPMFYPRP
shrunken log2 fold change: -0.305

RRIRWRPPRLPRPRPRPFPNPRP
shrunken log2 fold change: -0.138

RRIRTRPPRLPRPRPRPQFHPRP
shrunken log2 fold change: -0.541

RRIRYRPPRLPRPRPRPMVRPRP
shrunken log2 fold change: -0.0135

RRIRQRPPRLPRPRPRPSMLPRP
shrunken log2 fold change: -0.522

RRIRGRPPRLPRPRPRPGVYPRP
shrunken log2 fold change: 0.0589

RRIRNRPPRLPRPRPRPCDAPRP
shrunken log2 fold change: -0.195

RRIRLRPPRLPRPRPRPDVKPRP
shrunken log2 fold change: -0.488

RRIRGRPPRLPRPRPRPFGRPRP
shrunken log2 fold change: -0.0748

RRIRQRPPRLPRPRPRPSYPPRP
shrunken log2 fold change: -0.857

RRIRNRPPRLPRPRPRPNMLPRP
shrunken log2 fold change: -0.772

RRIRTRPPRLPRPRPRPKHIPRP
shrunken log2 fold change: -0.823

RRIRRRPPRLPRPRPRPMISPRP
shrunken log2 fold change: 0.044

RRIRYRPPRLPRPRPRPTHMPRP
shrunken log2 fold change: -0.429

RRIRERPPRLPRPRPRPIAGPRP
shrunken log2 fold change: 0.0426

RRIRGRPPRLPRPRPRPAGKPRP
shrunken log2 fold change: 0.338

RRIRMRPPRLPRPRPRPRHQPRP
shrunken log2 fold change: 0.155

RRIRSRPPRLPRPRPRPCDMPRP
shrunken log2 fold change: -0.184

RRIRERPPRLPRPRPRPFARPRP
shrunken log2 fold change: 0.102

RRIRARPPRLPRPRPRPRRVPRP
shrunken log2 fold change: 1.36

RRIRRRPPRLPRPRPRPFDSPRP
shrunken log2 fold change: -0.21

RRIRHRPPRLPRPRPRPESQPRP
shrunken log2 fold change: -0.173

RRIRKRPPRLPRPRPRPPRYPRP
shrunken log2 fold change: 0.525

RRIRGRPPRLPRPRPRPPPCPRP
shrunken log2 fold change: 1.16

RRIRSRPPRLPRPRPRPRTRPRP
shrunken log2 fold change: 0.512

RRIRTRPPRLPRPRPRPWWGPRP
shrunken log2 fold change: 0.221

RRIRSRPPRLPRPRPRPHKQPRP
shrunken log2 fold change: -0.0702

RRIRCRPPRLPRPRPRPCRWPRP
shrunken log2 fold change: -0.103

RRIRRRPPRLPRPRPRPNIEPRP
shrunken log2 fold change: 0.0519

RRIRDRPPRLPRPRPRPALDPRP
shrunken log2 fold change: 1.05

RRIRWRPPRLPRPRPRPIRFPRP
shrunken log2 fold change: -0.0926

RRIRRRPPRLPRPRPRPRELPRP
shrunken log2 fold change: 0.887

RRIRTRPPRLPRPRPRPYQSPRP
shrunken log2 fold change: -0.465

RRIRTRPPRLPRPRPRPQKEPRP
shrunken log2 fold change: 0.0092

RRIRLRPPRLPRPRPRPPRHPRP
shrunken log2 fold change: 0.377

RRIRLRPPRLPRPRPRPILNPRP
shrunken log2 fold change: -0.389

RRIRSRPPRLPRPRPRPCATPRP
shrunken log2 fold change: 0.162

RRIRVRPPRLPRPRPRPLHPPRP
shrunken log2 fold change: 0.149

RRIRERPPRLPRPRPRPQVLPRP
shrunken log2 fold change: -0.0121

RRIRKRPPRLPRPRPRPVQQPRP
shrunken log2 fold change: 0.368

RRIRIRPPRLPRPRPRPTWTPRP
shrunken log2 fold change: 0.398

RRIRCRPPRLPRPRPRPVDKPRP
shrunken log2 fold change: -0.184

RRIRHRPPRLPRPRPRPVAMPRP
shrunken log2 fold change: -0.123

RRIRNRPPRLPRPRPRPLKVPRP
shrunken log2 fold change: 4.47

RRIRMRPPRLPRPRPRPGRQPRP
shrunken log2 fold change: -0.00182

RRIRYRPPRLPRPRPRPYYYPRP
shrunken log2 fold change: -0.476

RRIRCRPPRLPRPRPRPCDCPRP
shrunken log2 fold change: -0.139

RRIRFRPPRLPRPRPRPKFVPRP
shrunken log2 fold change: -0.0222

RRIRRRPPRLPRPRPRPATPPRP
shrunken log2 fold change: 0.783

RRIRIRPPRLPRPRPRPCNPPRP
shrunken log2 fold change: -0.123

RRIRMRPPRLPRPRPRPIFFPRP
shrunken log2 fold change: 0.276

RRIRARPPRLPRPRPRPCMPPRP
shrunken log2 fold change: -0.0783

RRIRERPPRLPRPRPRPHYCPRP
shrunken log2 fold change: -0.0425

RRIRSRPPRLPRPRPRPNMHPRP
shrunken log2 fold change: -0.257

RRIRHRPPRLPRPRPRPRHHPRP
shrunken log2 fold change: -0.0639

RRIRYRPPRLPRPRPRPLIGPRP
shrunken log2 fold change: -0.478

RRIRERPPRLPRPRPRPHEEPRP
shrunken log2 fold change: 0.13

RRIRHRPPRLPRPRPRPCIYPRP
shrunken log2 fold change: -0.196

RRIRNRPPRLPRPRPRPHNWPRP
shrunken log2 fold change: -0.391

RRIRFRPPRLPRPRPRPQACPRP
shrunken log2 fold change: -0.0456

RRIRKRPPRLPRPRPRPVMSPRP
shrunken log2 fold change: -0.123

RRIRHRPPRLPRPRPRPKAFPRP
shrunken log2 fold change: 0.0173

RRIRWRPPRLPRPRPRPVSRPRP
shrunken log2 fold change: 0.616

RRIRRRPPRLPRPRPRPKVTPRP
shrunken log2 fold change: -0.131

RRIRGRPPRLPRPRPRPFFLPRP
shrunken log2 fold change: 0.301

RRIRMRPPRLPRPRPRPQIKPRP
shrunken log2 fold change: -0.0128

RRIRTRPPRLPRPRPRPIHEPRP
shrunken log2 fold change: -0.259

RRIRDRPPRLPRPRPRPCIMPRP
shrunken log2 fold change: 0.0282

RRIRARPPRLPRPRPRPTTGPRP
shrunken log2 fold change: 0.331

RRIRARPPRLPRPRPRPSLMPRP
shrunken log2 fold change: 0.0307

RRIRVRPPRLPRPRPRPKPKPRP
shrunken log2 fold change: 0.312

RRIRTRPPRLPRPRPRPFASPRP
shrunken log2 fold change: -0.00185

RRIRIRPPRLPRPRPRPQDRPRP
shrunken log2 fold change: -0.007

RRIRQRPPRLPRPRPRPCMIPRP
shrunken log2 fold change: -0.0196

RRIRYRPPRLPRPRPRPCIVPRP
shrunken log2 fold change: -0.246

RRIRERPPRLPRPRPRPRNHPRP
shrunken log2 fold change: -0.367

RRIRMRPPRLPRPRPRPYLQPRP
shrunken log2 fold change: -0.0699

RRIRHRPPRLPRPRPRPSHTPRP
shrunken log2 fold change: -0.248

RRIRFRPPRLPRPRPRPNKHPRP
shrunken log2 fold change: -0.348

RRIRRRPPRLPRPRPRPLLGPRP
shrunken log2 fold change: 0.504
